Laboratory results as given in article PMC4192486, “The Importance of a Gatekeeper Residue on the Aggregation of Transthyretin” (The Journal of Biological Chemistry, 2014).

Molecular target: the molecule itself
Assay: SEC; Superdex 75 on HPLC, absorbance at 280 nm; 100 μM peptide in buffer pH 5.0 (100 mM MES, 100 mM KCl) at 25 °C, aliquots at 0, 5, 10, 15 and 30 min of the aggregation reaction; soluble WT peptide at the same concentration as control

B1: TTR 26–57 peptide bearing the K35L substitution (peptide)
peptide: not shown
notes: transthyretin (TTR), human, residues 26-57 with K35L; also called K35L peptide; 26–57 K35L; source: synthetic peptide; bought: Genemed Synthesis
How did the “stoichiometry N” value turn out when B1 was run?
Its value is 10 to 15 units.
